According to paper PMC3391258 (PLoS ONE, 2012):

T1: TolC with a hexahistidine-tag at the C-terminus (E. coli, UniProt P02930 23-493)
T1 construct: also called TolC-His; hexa-His-tagged wild-type TolC; not shown: His6, C-terminal, kept
T1 sequence (looked up): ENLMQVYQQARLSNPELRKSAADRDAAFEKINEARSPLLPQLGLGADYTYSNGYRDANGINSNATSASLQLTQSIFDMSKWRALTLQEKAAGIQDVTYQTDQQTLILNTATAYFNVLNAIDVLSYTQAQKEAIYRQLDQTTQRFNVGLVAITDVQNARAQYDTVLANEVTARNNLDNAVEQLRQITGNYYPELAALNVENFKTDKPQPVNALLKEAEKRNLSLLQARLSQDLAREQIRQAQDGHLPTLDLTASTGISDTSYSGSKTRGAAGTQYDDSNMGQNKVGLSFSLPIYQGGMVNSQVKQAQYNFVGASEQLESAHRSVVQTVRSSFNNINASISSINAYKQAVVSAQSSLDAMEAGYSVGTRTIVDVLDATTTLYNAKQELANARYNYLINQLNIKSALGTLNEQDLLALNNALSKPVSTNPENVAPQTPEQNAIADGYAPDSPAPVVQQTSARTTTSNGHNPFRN


Target: T1, TolC with a hexahistidine-tag at the …
Test: cross-linking
Details: partners not purified

Binder | crosslinking to TolC, percent of that of wild-type HlyD
HlyD-R186A tagged with c-Myc at the C-terminus (natural protein, also called HlyD-R186A-C-myc) MKTWLMGFSEFLLRYKLVWSETWKIRKQLDTPVREKDENEFLPAHLELIETPVSRRPRLVAYFIMGFLVIAFILSVLGQVEIVATANGKLTLSGRSKEIKPIENSIVKEIIVKEGESVRKGDVLLKLTALGAEADTLKTQSSLLQARLEQIRYQILSRSIELNKLPELKLPDEPYFQNVSEEEVLALTSLIKEQFSTWQNQKYQKELNLDKKRAERLTILARINRYENVSRVEKSRLDDFRSLLHKQAIAKHAVLEQENKYVEAANELRVYKSQLEQIESEILSAKEEYQLVTQLFKNEILDKLRQTTDSIELLTLELEKNEERQQASVIRAPVSGKVQQLKVHTEGGVVTTAETLMVIVPEDDTLEVTALVQNKDIGFINVGQNAIIKVEAFPYTRYGYLVGKVKNINLDAIEDQKLGLVFNVIVSVEENDLSTGNKHIPLSSGMAVTAEIKTGMRSVISYLLSPLEESVTESLHER | 10 % of wild-type HlyD
HlyD-T197A tagged with c-Myc at the C-terminus (natural protein, also called HlyD-T197A-C-myc) MKTWLMGFSEFLLRYKLVWSETWKIRKQLDTPVREKDENEFLPAHLELIETPVSRRPRLVAYFIMGFLVIAFILSVLGQVEIVATANGKLTLSGRSKEIKPIENSIVKEIIVKEGESVRKGDVLLKLTALGAEADTLKTQSSLLQARLEQIRYQILSRSIELNKLPELKLPDEPYFQNVSEEEVLRLTSLIKEQFSAWQNQKYQKELNLDKKRAERLTILARINRYENVSRVEKSRLDDFRSLLHKQAIAKHAVLEQENKYVEAANELRVYKSQLEQIESEILSAKEEYQLVTQLFKNEILDKLRQTTDSIELLTLELEKNEERQQASVIRAPVSGKVQQLKVHTEGGVVTTAETLMVIVPEDDTLEVTALVQNKDIGFINVGQNAIIKVEAFPYTRYGYLVGKVKNINLDAIEDQKLGLVFNVIVSVEENDLSTGNKHIPLSSGMAVTAEIKTGMRSVISYLLSPLEESVTESLHER | 48 % of wild-type HlyD
